One molecule from PMC5347692, “Serpin E2 promotes breast cancer metastasis by remodeling the tumor matrix and polarizing tumor associated macrophages” (Oncotarget, 2016) can be followed below.

This assay concerns the target T1, human recombinant tPA (human, UniProt P00750 36-562).
T1 construct: The sentence 'Human recombinant serpinE2 and tPA were purchased from R&D' is read as human for both; source: bought: R&D
The assay can be described thus: SDS-stable complex seen by western blot; recombinant serpinE2 and tPA bound to each other beforehand, complex immunoprecipitated with Ab11 and Protein G, western blot with a serpinE2-specific antibody; complex band above uncomplexed serpinE2. To be noted: both partners purified. A general note: In western blotting, separated proteins are transferred to a membrane and probed.

T1 sequence (P00750 36-562): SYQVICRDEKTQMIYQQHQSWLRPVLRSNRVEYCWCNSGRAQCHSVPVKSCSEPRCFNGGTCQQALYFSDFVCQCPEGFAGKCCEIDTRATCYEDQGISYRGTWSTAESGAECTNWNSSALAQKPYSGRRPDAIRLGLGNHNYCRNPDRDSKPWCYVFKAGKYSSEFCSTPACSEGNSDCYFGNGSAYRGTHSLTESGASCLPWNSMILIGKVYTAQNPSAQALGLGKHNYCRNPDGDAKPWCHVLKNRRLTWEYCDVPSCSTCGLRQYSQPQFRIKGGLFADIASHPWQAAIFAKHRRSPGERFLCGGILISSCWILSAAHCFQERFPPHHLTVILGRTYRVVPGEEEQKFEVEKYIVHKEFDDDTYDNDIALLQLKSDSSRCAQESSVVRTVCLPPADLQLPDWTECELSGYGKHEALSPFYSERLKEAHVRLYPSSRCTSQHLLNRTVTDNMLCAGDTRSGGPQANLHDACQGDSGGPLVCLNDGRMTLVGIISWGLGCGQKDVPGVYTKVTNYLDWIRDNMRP

B1: human recombinant serpinE2 (natural protein, UniProt P07093 20-398, looked up)
chain: SHFNPLSLEELGSNTGIQVFNQIVKSRPHDNIVISPHGIASVLGMLQLGADGRTKKQLAMVMRYGVNGVGKILKKINKAIVSKKNKDIVTVANAVFVKNASEIEVPFVTRNKDVFQCEVRNVNFEDPASACDSINAWVKNETRDMIDNLLSPDLIDGVLTRLVLVNAVYFKGLWKSRFQPENTKKRTFVAADGKSYQVPMLAQLSVFRCGSTSAPNDLWYNFIELPYHGESISMLIALPTESSTPLSAIIPHISTKTIDSWMSIMVPKRVQVILPKFTAVAQTDLKEPLKVLGITDMFDSSKANFAKITTGSENLHVSHILQKAKIEVSEDGTKASAATTAILIARSSPPWFIVDRPFLFFIRHNPTGAVLFMGQINKP
notes: serpinE2 (PN-1, protease nexin-1), human, recombinant, bought; With tPA it forms the serpin/protease complex that is seen as a band above uncomplexed serpinE2 on the western blot; also called PN-1; purified human serpinE2; source: bought: R&D
In the case of B1, the binding result is recorded as “binds”.
